Test results: IntAct's records for PubMed 30179222

B1: Nuclear pore complex protein Nup85 (Homo sapiens), Q9BW27 (parent)
chain: MEELDGEPTVTLIPGVNSKKNQMYFDWGPGEMLVCETSFNKKEKSEMVPSCPFIYIIRKDVDVYSQILRKLFNESHGIFLGLQRIDEELTGKSRKSQLVRVSKNYRSVIRACMEEMHQVAIAAKDPANGRQFSSQVSILSAMELIWNLCEILFIEVAPAGPLLLHLLDWVRLHVCEVDSLSADVLGSENPSKHDSFWNLVTILVLQGRLDEARQMLSKEADASPASAGICRIMGDLMRTMPILSPGNTQTLTELELKWQHWHEECERYLQDSTFATSPHLESLLKIMLGDEAALLEQKELLSNWYHFLVTRLLYSNPTVKPIDLHYYAQSSLDLFLGGESSPEPLDNILLAAFEFDIHQVIKECSIALSNWWFVAHLTDLLDHCKLLQSHNLYFGSNMREFLLLEYASGLFAHPSLWQLGVDYFDYCPELGRVSLELHIERIPLNTEQKALKVLRICEQRQMTEQVRSICKILAMKAVRNNRLGSALSWSIRAKDAAFATLVSDRFLRDYCERGCFSDLDLIDNLGPAMMLSDRLTFLGKYREFHRMYGEKRFADAASLLLSLMTSRIAPRSFWMTLLTDALPLLEQKQVIFSAEQTYELMRCLEDLTSRRPVHGESDTEQLQDDDIETTKVEMLRLSLARNLARAIIREGSLEGS
partner: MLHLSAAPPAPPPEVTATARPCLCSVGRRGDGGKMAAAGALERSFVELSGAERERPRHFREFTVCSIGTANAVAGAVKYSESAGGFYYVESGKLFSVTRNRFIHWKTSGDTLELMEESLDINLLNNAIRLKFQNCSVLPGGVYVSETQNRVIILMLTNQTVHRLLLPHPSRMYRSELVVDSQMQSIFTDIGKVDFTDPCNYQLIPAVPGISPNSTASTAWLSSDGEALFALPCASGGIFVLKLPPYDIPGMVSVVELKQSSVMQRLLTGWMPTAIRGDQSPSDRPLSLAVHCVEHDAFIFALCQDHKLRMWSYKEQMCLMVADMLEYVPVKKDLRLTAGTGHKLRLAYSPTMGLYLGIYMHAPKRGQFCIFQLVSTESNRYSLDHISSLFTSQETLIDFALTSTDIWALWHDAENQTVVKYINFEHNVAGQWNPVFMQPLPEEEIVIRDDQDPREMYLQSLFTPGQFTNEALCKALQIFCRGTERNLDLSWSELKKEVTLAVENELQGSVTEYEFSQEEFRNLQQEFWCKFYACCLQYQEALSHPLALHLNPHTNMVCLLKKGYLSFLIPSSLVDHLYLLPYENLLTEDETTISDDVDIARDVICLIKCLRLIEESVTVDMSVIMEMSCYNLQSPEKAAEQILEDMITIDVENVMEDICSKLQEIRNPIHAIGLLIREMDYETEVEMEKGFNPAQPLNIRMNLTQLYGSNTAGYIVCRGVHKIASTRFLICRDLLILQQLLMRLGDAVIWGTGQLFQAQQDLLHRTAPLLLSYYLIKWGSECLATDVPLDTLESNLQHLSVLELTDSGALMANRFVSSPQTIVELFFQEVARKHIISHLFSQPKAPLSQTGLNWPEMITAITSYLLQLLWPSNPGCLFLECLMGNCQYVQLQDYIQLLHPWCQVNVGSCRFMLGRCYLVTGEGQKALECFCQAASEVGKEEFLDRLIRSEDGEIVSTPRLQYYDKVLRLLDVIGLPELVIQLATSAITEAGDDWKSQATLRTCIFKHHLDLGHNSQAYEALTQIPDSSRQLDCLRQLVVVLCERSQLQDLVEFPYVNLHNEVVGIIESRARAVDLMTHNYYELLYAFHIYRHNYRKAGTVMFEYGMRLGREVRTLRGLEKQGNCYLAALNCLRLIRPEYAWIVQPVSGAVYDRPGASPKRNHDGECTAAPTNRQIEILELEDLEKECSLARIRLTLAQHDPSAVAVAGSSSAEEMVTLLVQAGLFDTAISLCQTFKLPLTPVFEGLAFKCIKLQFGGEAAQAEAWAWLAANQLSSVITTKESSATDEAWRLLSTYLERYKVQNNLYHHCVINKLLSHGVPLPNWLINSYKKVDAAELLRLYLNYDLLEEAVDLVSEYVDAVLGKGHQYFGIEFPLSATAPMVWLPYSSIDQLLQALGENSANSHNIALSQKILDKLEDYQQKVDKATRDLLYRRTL

Variants of: B1
Details: with nu160_human NUP160, Q12769

effect of a mutation on the interaction	Variant
disrupting interaction strength	A581P
decreasing interaction strength	R645W
decreasing interaction strength	A477V

Variants of: B1
Details: with nu160_human NUP160, Q12769
Remark: another data set of the same source

effect of a mutation on the interaction	Variant
with no effect	A477V
